US9156883B2, “Binding molecules for human factor VIII and factor VIII-like proteins” (DYAX CORP., priority 1999, dated 2015)
Positions of bridges follow the written chain, without caps; N, C: chain ends. No end group written: not given here. *: point of attachment. NHNH2 = NN*

Legend:
REFACTO® = molecular target: T1, REFACTO® (Homo sapiens, UniProt P00451); assay: Comparative batch binding and elution of REFACTO® with regenerated immobilized ligands; details: target REFACTO® 100 U/ml in modified Buffer 1
T1 construct: amino acids 1-743 and 1638 through 2332 of human factor VIII; purchased Genetics Institute, Inc. (Cambridge, Mass.)
T1 sequence (P00451 20-762): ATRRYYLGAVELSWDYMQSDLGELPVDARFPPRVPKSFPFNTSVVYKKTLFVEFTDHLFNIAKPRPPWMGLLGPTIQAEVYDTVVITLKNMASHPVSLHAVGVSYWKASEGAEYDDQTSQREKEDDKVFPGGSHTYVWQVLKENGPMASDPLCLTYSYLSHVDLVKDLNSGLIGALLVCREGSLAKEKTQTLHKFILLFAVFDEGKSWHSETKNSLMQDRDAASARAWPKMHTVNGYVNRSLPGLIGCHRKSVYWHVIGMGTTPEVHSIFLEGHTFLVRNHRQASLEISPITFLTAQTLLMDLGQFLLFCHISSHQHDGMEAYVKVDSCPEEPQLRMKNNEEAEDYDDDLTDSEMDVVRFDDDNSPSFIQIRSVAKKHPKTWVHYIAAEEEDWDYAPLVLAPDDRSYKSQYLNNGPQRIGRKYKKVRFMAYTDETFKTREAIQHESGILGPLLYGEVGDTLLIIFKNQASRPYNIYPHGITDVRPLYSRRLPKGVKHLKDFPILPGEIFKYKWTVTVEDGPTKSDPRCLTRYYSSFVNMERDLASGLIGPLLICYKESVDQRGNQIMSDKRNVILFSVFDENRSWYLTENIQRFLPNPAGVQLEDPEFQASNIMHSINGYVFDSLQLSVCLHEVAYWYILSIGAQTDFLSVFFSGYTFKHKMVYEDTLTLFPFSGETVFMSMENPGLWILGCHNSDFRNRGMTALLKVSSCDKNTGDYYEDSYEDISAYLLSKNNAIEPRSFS
T1 sequence (P00451 1657-2351): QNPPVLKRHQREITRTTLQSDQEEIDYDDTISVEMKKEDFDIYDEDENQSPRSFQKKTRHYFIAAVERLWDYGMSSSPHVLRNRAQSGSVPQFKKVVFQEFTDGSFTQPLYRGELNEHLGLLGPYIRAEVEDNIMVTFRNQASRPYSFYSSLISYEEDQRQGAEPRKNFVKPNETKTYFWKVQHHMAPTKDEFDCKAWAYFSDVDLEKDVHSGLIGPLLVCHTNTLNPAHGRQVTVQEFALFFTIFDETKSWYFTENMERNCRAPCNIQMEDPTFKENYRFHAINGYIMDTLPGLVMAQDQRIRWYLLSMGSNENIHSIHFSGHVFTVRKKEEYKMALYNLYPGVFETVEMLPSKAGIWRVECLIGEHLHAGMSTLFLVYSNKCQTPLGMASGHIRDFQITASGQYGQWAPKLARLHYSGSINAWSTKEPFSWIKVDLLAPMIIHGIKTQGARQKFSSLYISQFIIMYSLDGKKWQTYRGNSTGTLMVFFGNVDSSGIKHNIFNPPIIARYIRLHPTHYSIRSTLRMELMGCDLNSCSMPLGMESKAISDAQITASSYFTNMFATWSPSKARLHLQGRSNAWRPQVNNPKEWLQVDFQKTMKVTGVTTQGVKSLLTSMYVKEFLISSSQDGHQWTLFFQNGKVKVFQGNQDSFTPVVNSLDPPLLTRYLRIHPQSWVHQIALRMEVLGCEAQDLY
From the text: A commercial ELISA kit (IMUBIND fVIII ELISA kit, Product #884, American, Inc., Greenwich, Conn.) developed to detect factor VIII was used according to the manufacturer's specifications in order to detect both the REFACTO® and the nhfVIII targets. The kit employs a sandwich ELISA assay in which the target is captured by an immobilized monoclonal antibody and the captured target is detected with a second monoclonal antibody-horseradish peroxidase (HRP) conjugate. Addition of the peroxidase substrate and its subsequent reaction with the HRP produces a blue color (detected at 630 nm) which changes to yellow (detected at 450 nm) on addition of the 0.5N sulfuric acid stop solution. Color response is calibrated with factor VIII standards provided by the manufacturer.
Following the pH 2 washes, the beads were washed once in PBS containing 0.05% azide and stored at 4° C.
A sample of nhfVIII was diluted to a final concentration of 100 U/ml by addition of 2.32 ml H2O, 180 μl 1M NH4OAc, pH 6.3 (to 72 mM), and 1 μl Tween 80 (to 0.04%). REFACTO® stock solution was diluted to 100 U/ml in a modified Buffer 1, in which the NaCl concentration was reduced from […] to 330 mM.
Immobilized peptides were tested for binding to nhFVIII in comparison with REFACTO®. […] Next, nhfVIII and REFACTO® solutions were mixed with regenerated affinity beads bearing the CS-454, CS-456, and CS-458 ligands in a comparative batch purification procedure.

[1] = molecular target: T2, factor VIII-like polypeptide (REFACTO®) (Homo sapiens, UniProt P00451); assay: Affinity chromatography capture and elution of REFACTO® on immobilized peptide columns; assay type: binding; details: bound material eluted in the presence of ethylene glycol
T2 construct: amino acids 1-743 and 1638 through 2332 of human factor VIII; purchased Genetics Institute, Inc. (Cambridge, Mass.)
T2 sequence (P00451 20-762): T1 sequence (P00451 20-762)
T2 sequence (P00451 1657-2351): T1 sequence (P00451 1657-2351)
Protocol: The candidate ligands were immobilized onto a formyl-substituted ethylene glycol-methacrylate chromatographic resin (Toyopearl Formyl 650-M, pore size of ˜1000 Å; TosoHaas, Montgomeryville, Pa.). The hydrazide-containing peptides were immobilized by facilitating hydrazone bond formation, the GI-1 and -2 peptides were immobilized via reductive amination using NaCNBH3. The amount of polypeptide immobilized on the solid support was determined by quantifying the amount of free polypeptide remaining in solution. The amount of ligand immobilized per ml of resin was in the range of 0.7-1.5 μmol for the hydrazine-immobilized peptides.
The nine peptides were evaluated by affinity chromatography for their ability to capture the REFACTO® described in Example I, under specific binding and release conditions.
The factor VIII-like polypeptide (REFACTO®) was diluted in SP Buffer to a concentration of 150 μg/ml. The affinity resins (˜350 μl) were each packed into glass columns, and approximately 150 μg of the factor VIII target was applied to the prepared affinity columns at a flow rate of 200 μl/minute (linear velocity of 170 cm/hour). […] Fractions were collected and the mass and activity of recovered factor VIII-like polypeptide was determined by reversed-phase HPLC and by enzymatic assay.
For the mass determination, a standard curve with REFACTO® (0-200 μg) was generated and the amount present in each fraction was calculated according to techniques well known in the art. Reversed-phase HPLC in the presence of 20 mM EDTA was used to disrupt the REFACTO® molecule into its component subunits, which were eluted with a gradient of acetonitrile/0.01% TFA. The activity assay was a Factor IX-, X-based assay. The results for each affinity resin are set forth below (Table 6).

Row | Substance | % of Total Recovered in: Eluate (REFACTO®) | % of Total Recovered in: Unbound (REFACTO®) | % of Total Recovered in: Wash (REFACTO®) | capture of the factor VIII target by the affinity resin (in words) [1]
1 | AEGTGDFCWVFAFDHCHDPGPEGGGS-NHNH2 (disulfide 8-16 (inferred)) [CS-458] | 27% | 59% | 14% | –
2 | AEGTGDHLCGAWFRPCDADPGPEGGGS-NHNH2 (disulfide 9-16 (inferred)) [CS-454] | – | – | – | captured virtually all of the factor VIII target applied
3 | AEGTGDFGCSWLFPCPFDPGPEGGGS-NHNH2 (disulfide 9-15 (inferred)) [CS-456] | – | – | – | captured virtually all of the factor VIII target applied
